Laboratory results reported in patent US20210139569A1 (STRESSMARQ BIOSCIENCES, published 2021).

Columns and labels:
[1] = molecular target: α-synuclein peptide AA 101-130, BSA conjugate (human, N-terminus conjugated to a C-6 spacer (Ahx), which is conjugated to an N-terminal cysteine; conjugated to BSA); assay: binding to overlapping peptides (FIG. 10)
[2] = molecular target: T1, α-synuclein peptide AA 41-70, BSA conjugate (human, N-terminus conjugated to a C-6 spacer (Ahx), which is conjugated to an N-terminal cysteine; conjugated to BSA); assay: ELISA on BSA-conjugated peptide (FIG. 10)
T1 construct: also called 41-70aa

[3] = molecular target: T2, α-synuclein peptide AA 1-30, BSA conjugate (human, N-terminus conjugated to a C-6 spacer (Ahx), which is conjugated to an N-terminal cysteine; conjugated to BSA); assay: ELISA on BSA-conjugated peptide (FIG. 10)
T2 construct: also called 1-30aa

[4] = molecular target: α-synuclein peptide AA 121-140, BSA conjugate (human, N-terminus conjugated to a C-6 spacer (Ahx), which is conjugated to an N-terminal cysteine; conjugated to BSA); assay: ELISA on BSA-conjugated peptide (FIG. 10)
[5] = molecular target: α-synuclein peptide AA 81-110, BSA conjugate (human, N-terminus conjugated to a C-6 spacer (Ahx), which is conjugated to an N-terminal cysteine; conjugated to BSA); assay: ELISA on BSA-conjugated peptide (FIG. 10)
[6] = molecular target: T3, α-synuclein peptide AA 21-50, BSA conjugate (human, N-terminus conjugated to a C-6 spacer (Ahx), which is conjugated to an N-terminal cysteine; conjugated to BSA); assay: ELISA on BSA-conjugated peptide (FIG. 10)
T3 construct: also called 21-50aa

Sequence of α-synuclein peptide AA 101-130, BSA conjugate (human, N-terminus conjugated to a C-6 spacer (Ahx), which is conjugated to an N-terminal cysteine; conjugated to BSA) (peptide, as listed by the source): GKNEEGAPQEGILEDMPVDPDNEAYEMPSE
Sequence of α-synuclein peptide AA 81-110, BSA conjugate (human, N-terminus conjugated to a C-6 spacer (Ahx), which is conjugated to an N-terminal cysteine; conjugated to BSA) (peptide, as listed by the source): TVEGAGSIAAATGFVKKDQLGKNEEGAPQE

B1: monoclonal antibody 2F11 (hybridoma ATCC #PTA-124174) (antibody, V domains shown)
VH: EVQLQQSGAELVRSGASVKLSCTASGFNIKDYYMFWVKQRPEQGLEWIGWNDPENGDTEYAPKFQGKATMTADTSSNTAYLQLSSLTSEDTAVYYCNAWDGNYVMDYWGQGTSVTVSS
VL: QIVLTQSPAIMSASLGERVTMTCTASSSVSSSYLHWYQQKPGSSPKLWIYSTSNLASGVPPRFSGSGSGTSYSLTISSMEAEDAATYYCHQYHRSPPMYTFGGGTKLE
notes: Mouse monoclonal, IgG1 kappa; Used as hybridoma supernatant or Protein G purified; with gold-labelled detection for electron microscopy; also called clone 2F11; 2F11 antibody
B1: binds [1]; no binding (tested: 1 µg/mL antibody) [2]; no binding (tested: 1 µg/mL antibody) [3]. B1: no binding (tested: 1 µg/mL antibody) [4]; no binding (tested: 1 µg/mL antibody) [5]; no binding (tested: 1 µg/mL antibody) [6].
